Assay results from a protein production outcome set (Wang et al. 2014).

Experiment: label from the status in PepcDB records
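Further: failed if final PepcDB status was selected cloned or expressed and not failed if soluble or beyond.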

In the case of “MTDSKYISIKGARVNNLKNIDVNIPRNKLVVITGLSGSGKSSLAFDTLYAEGQRRYVESLSSYARQFLGRMSKPECDFIKGIPPAIAIEQKVNSRNPRSTVGTSTEIYEYLRLLYARVGKTYSPVSGEEVKKHSIEDIVNCMLSYPEGTRYTVLTQIYLHDGRTLEQQLEIDRKQGFNRLEVNGEMVRIDEYAAGKEDVVYLLVDRMTAAKSKDAISRLTDSAETAMYEGDGMCMLRFYQPDGTTRLHTFSTKFEADGMTFEEPNDQMFSFNSPIGACPVCEGFGKVIGIDEHLVVPNRSLSVYDGAIVCWRGEKMGEWREELIHNAEKFNFPIFTPYYELTDEQRRVLWEGNQYFHGINDFFKMLEENQYKIQYRVMLARYRGKTLCPKCHGTRLKPEAGYVRVGGKNISELVDLPITELQKFFDSLTLNEHDQAVARRILTEINSRIRFLIDVGLGYLTLNRLSNSLSGGESQRINLATSLGSSLVGSLYILDEPSIGLHSRDTDRLVHVLRQLQQLGNTVVVVEHDEEIIRAADYIIDIGPNAGRLGGQVVYEGDMKDLKKGSNSYTVKYLLGEETIPVPEHRRPWNNYIEIKGARENNLKGVDARFPLNVMTVVTGVSGSGKSTLVRDIFYRALKRELDECSERPGEFVSIEGDLRNLRNVEFVDQNPIGKSSRSNPVTYIKAYDEIRKLWADQPLAKQMGYTAGHFSFNNEGGRCEECKGDGTITVEMQFMADLVLECESCHGKRFKADTLEVKFQDKNIYDILEMTVNQAIEFFTEHGQKKVVKKLIPLQDVGLGYIKLGQSSSTLSGGENQRVKLAYYLSQEKADPTLFIFDEPTTGLHFHDIRKLLDAFDALIRRGHSIVIIEHNMDVIKCADYVIDLGPEGGDKGGNIVATGTPEEVAACAASYTGQFLQEKLNHL”, the protein production is reported as “failed”.
For “MIIWQPDQKINNGRFIIQGKPLGEGGFGITYKALEPSTGKLYAIKTLNQQMQLLRSDFAEQQIKFINEALTIKGFDHPHILKVHEVIQEGELFGVVMEYIDGVTLFEYVQDKGQLSETEALLYVNQIGQALELIHQKQHLHRDIKPENILLRHTTRKAILIDFGLAREFTIDQTGSMTNAKTEGYAPPEQYERRGRFDAYVDVYALAATLYNLLTGKVPLPVNFRKAGIPLPPPKQFNSQISQRVNDAILKGMELEPQERTPTVLEFRKNLGLVSSGGAEVQLKSSVGMDYRQLRDLLAVGKWKEADAETARVMLAAMKREKEGWLREEDTWFFPCEDLRTIDQLWVKYSNGRFGFSVQKRIYQSLGGKRSYDEEIWRAFGDKVGWRKGGEWLYYKDITFDITAPEAHLPCYTLTIPYTSRGEVGYTDYSPGFGLWWWWGGGLFSRVETCKM”, the protein production was “failed”.
With “PDMDPRCPARADPRKLHDAIARFGVNHLFGSPALLRVLAEYGKPLPTLRCVTSAGAPVPPYVVAQIRALLSDEAQFLTPYGATECLPIAVIESRE” the protein production was “failed”.
For “MRFSYIEPRAKYLISKLSKIWVFYIFLSFVVIGGLVWFMHNAIKSTQDNASSLTIQERLYRHEISRLQVKTDETLKLIKEAKKRLNYNDDIRDVLQGLLNIVPDSITINSIEIDQQSVVVSGKTPSKEAFYFLFQNKLNPMFDYSRAEFFPLSDGWFNFVSTNFSNSLLIKNPESIK”, the protein production was “failed”.
With “MKTKNKILPEQEEEKTFQYRTYGKGELALLYLPNILQQSAVDRFNEWIEAAPGLKERLLATGMNPRARYYTPAQVRLIIEVLQEP” the protein production was “failed”.
For “MLPHSGRMVLIDRITRYGDDFVEAGAQVKPDHILLAGGMLPYTAFIELMAQAVGAYAGIQARKNARPVRLGFLPGTRKLEIFAQSVPVGTHLPATAHMSIQDAGVWACPTANCVGRMRRKLRPEHSFQTAFWHAPHSTCTAPNTMTEQLTPSEQAHIRRTTMTETVLITGSNRGIGKAAALEHHHHHH”, the protein production was “failed”.
In the case of “MAMKIPKSGYNRFMKEGAQHFKGTDEAVQRNIEACTELASQIRSAYGPNGMNKMVINHIEKLFVTNDAATILKELEIQHPAARIIIMATEMQEKQIGDNTNTVVILAAALLEHAANLIHMGMTPQEVAAGYEQAAEKALEILPTLVVKEATDMKNIEEVRQYIRSAITSKQYDNEDIIADLVAKACVTTCPANSFNFNVDNIRICKIIGSGVHTSTVMNGMVFKRGAEGEIREARDARIAVYTCPFDLTQTETKGTVLIENADELRNFSKGEEAEVEEQVKAIADNARSSILAKFWLMNFSKGEEAEVEEQQVKAIADNGVKVVVAAGKFGDMYLHFLNKYKIMAVRLTSKFDLRRLCRTVGAQPQARICAPAVNLLGHCDSVAVQEIGDENVVVFDKKSETGKVATIIIRGSSQSRIDDVERAVDDAVNTYKALTKDGKLLAGAGAVEIELAKEIESFGAKAPGLEQYAIKKFAHALETLPKAIAENAGMPTTETLTKLYAEHVAGKKNAGIDIWKRETMDAVVNNIFDLYAGKRLAIKLATDAASTILKVDQIIMSKQATGGPKPRGPKAQDEDDDGMA”, the protein production is reported as “failed”.
For “MGFKCGIVGLPNVGKSTLFNALTKAGIEAANFPFCTIEPNTGVVPMPDPRLDQLAEIVKPQRTLPTTMEFVDIAGLVKGASKGEGLGNQFLTNIRETEAIGHVVRCFENDNIIHVSGKVNPADDIEVINTELALADLDTCERAIHRVQKKAKGGDKDAKAELAVLEKCLPQLENAGMLRALDLSAEEKAAIRYLSFLTLKPTMYIANVNEDGFENNPYLDQVREIAAKEGSVVVPVCAAVEADIAELDDEERDEFMQELGLEEPGLNRVIRAGYKLLNLQTYFTAGVKEVRAWTIPVGATAPQAAGKIHTDFEKGFIRAQTISFEDFITYKGEQGAKEAGKMRAEGKDYIVKDGDVMNFLFNV”, the protein production was “not failed”.
For “MSPIHVRAHPGDVAERVLLPGDPGRAEWIAKTFLQNPRRYNDHRGLWGYTGLYKGVPVSVQTTGMGTPSAAIVVEELVRLGARVLVRVGTAGAASSDLAPGELIVAQGAVPLDGTTRQYLEGRPYAPVPDPEVFRALWRRAEALGYPHRVGLVASEDAFYATTPEEARAWARYGVLAFEMEASALFLLGRMRGVRTGAILAVSNRIGDPELAPPEVLQEGVRRMVEVALEAVLEV”, the protein production was “not failed”.
For “MFSPDSPISEFVSISTHVAPSVVKTTAGDYLLIWHLGGLPFVGRDEFELEQRHNTFNRLLQTLRAPDFANVAFWVHDVRRRRRIGAGGRFKQAFNQTLSDEYYTALSSQKIMQNELYFSMIYRPVVTGRRLVEKSANPDKIRAEEEQAVAKVVELATNVEAVLKDYAPYRLGMYEAKNGLVFSETLEFLGYLLNRIDEPVPVLPAPVPAYLPVSKHMFANKTGDFVIRTPDGINHFGAILNIKEYADGTYPGILNGLKYLDSEYVMTHSFSPVGRHDALKVLERTKGMMVSSGDKSSTQIRDLDVAMDDVASGNFVLGEYHFTLAVYADSQEKLARQIATTRAELSNAGFVSAKEDLAIASSFYSQLPGNWRFRTRIANLSSLNFLGLSPLHNFAQGKQHNNPWGDCVTTLQTTNGQPYYFNFHATHPSENSLGEKAIGNTMVIGKSGTGKTALINFLLSQVQKFDPIPTIFFFDKDRGAEIFVRACGGNYLALENGSPTGFNPFQCERNEANTQFLAELIKVLGGKAEYSAREEEDIYRAVEGMLDTPMHLRSMSNFRKSLPNMGDDGLYARLRRWTAGNSLGWVFDNPVDTIDLTRASIIGFDYTDVIDNAEVRVPVINYLLHRLEALIDGRPLIYVMDEFWKILDGKGGLKEFAKNKQKTIRKQNGLGIFATQSPEDALASDIAAALIEQTATMILLPNPNASRDDYMEGLKLTDAEYQVVVSLDERSRCFLVKQGHASAVCQLNLRGMDDALSVISSSTDNIEIMHQILAGKAGKLGVTVDQLTPEQWLEHHHHHH”, the protein production was “failed”.
For “MAKLTTDSPLCRKIVRSFLNFLDSVEVAPGVDEEGLEVARECLREAFKLNSDSSRDDDDDSFKPISLVNLFTSLDNNETIPPPPPPPVAATTQDPSSSGSHVSVDTCKEPSFTGTSRDELFGQLFGALEKVRYFRNTPDGDDDPAQLEKATRIFHDCVNEMEKSGCQTFDVNSLAETLKCQGNKAMQSNLYLEAVELYSFAIALTDKNAVFYCNRAAAYTQINMCSEAIKDCLKSIEIDPNYSKAYSRLGLAYYAQGKYAEAIEKGFKKALLLDPHNESVKENIRVAEQKIREEQQRQRRSQQNTSTFYTQEPEMGGGQGIPSQFSMPVNPDLMSMFMNMAGNTFPGNHSRNNEGGAGGDGTRNGADEPEIHVGGNINIDLGGTEQMPEDLSGALRSMMQMFGGSMGGTGNNNPQDSNGAQGRPSGN”, the protein production was “failed”.
In the case of “MSKLAQIVQKLKKQGIEAAVLSDPVSINYLTGFYSDPHERLMFLFLFADQEPLLFLPELDALRAKSILDISVTGYLDFENPLEKIKTLLPKTNYSKIALEFDNLNVTKFKGLETIFSGQFTNLTPLINRMR”, the protein production is reported as “not failed”.
In the case of “MPTKTYSEEFKRDAVALYENSDGASLQQIANDLGINRVTLKNWIIKYGSNHNVQGTTPSAAVSEAEQIRQLKKENALQRARTRHPAESCLEHHHHHH”, the protein production is reported as “not failed”.
For “MRILIPFKANNPKSRLSSILSEEERKELARLMLLDVIDAAKPFGEIKVVCPSELDVEGVEVVVDTSDLNTTVNKVMDEAPLAVIMSDLPLLSEEVLKRFFETEGDVVVAPGRKGGTNMLLVRKRGFRVSYHFGSFFKHLEMARKMGMKAKIFDSFYSSVDIDDESDLLELMMHGSGKKSYEFLRKIGFSVSFEETPRLERRVFMQ”, the protein production was “failed”.
With “MLMTLAATTSVSFNSKLLLFRIRCSDSNPKRGFGSKKEEKDPALQQRKSSSKQSVSVPRKAPGLNTQFEGKSGRSFDIDFDERLENIRRSALEQKKTEVVKEFGPIDYDAPVKSDQKTIGLGTKVGVGIAVVVFGLVFALGDFLPTGSDSPTKNTTVVKNQISEEEKATLQQRLKEFETTLNGTPQDQAALEGAAVTLTELGDYSRAAAFLEKLAKERPTDPDVFRLLGEVNYELNNYEGSIAAYKISEKVSKGIDLEVTRGLMNAYLAAKKPDEAVKFLLDTRERLNTKKTSTTDSVTDETNLDPIQVELLLGKAYSDWGHISDAIAVYDQLISAHPEDFRGYLAKGIILRENGSRGDAERMFIQARFFAPNKAKALVDRYSKL” the protein production was “failed”.
For “MASWSLRTVPPKMGRVVNCQNHITAGGGRRTLMKIILTGATGFVGCSLVPLLHQQGHELTLLVRSVSKAQRLFAPGSFPQLKAIAYEATKSGDWQKVVDGQDAVINLAGEPISERWTEAYKAEIFDSRKLGTEKLVEAIAKADRKPQVMISGSAIGYYGTSETATFTESSKPGDDFLAEVCQAWENAAHQVEQLGVRLVVFRIGIVLGADGGALAKMLPPFKLFAGGPLGSGEQWFSWIDRRDLIALIDKALTDSTLRGTYNATAPNPVKMKEFCHTLGKVLARPSWLPVPDIALELLLGEGAKLVLEGQEVLPGAISKTDFQFQAPDLETSLRQILGS”, the protein production was “failed”.
For “MMDFDFLEGKRLTEDVALDETMVWNEDIEMLDLHLVATSALIGVVHRVSYELLSRYLPNDYTAVVVETLARHVKAVPTGTRVAVGVRVVGVVGNRVKFRGIVMSGDEKILEAEFVRAIVPREKLRRLALEKAEKTSRLFGI”, the protein production was “not failed”.
In the case of “METNKNFAVIGLGEFGSRICEVLVDGGASVVAFDHDIQAVERIKKIVPAAMLVETTNEEALLKAPLDDVEVAIVAIGNNIEASVLTTTLLKQRDIPYVLARAVSPLHATVLRRVGANEVLNIEISAATRIARRLISPDVMDSIAVTKDFSIREIIVPKFFIGKTVGSVALKEKFNITLIALVRMALDIDSVGNPVKQEVMHYPEDDFELREGDKLFLIGSNIKLEEFRNM”, the protein production is reported as “failed”.
In the case of “MDTIQKRPRTRLSPEKRKEQLLDIAIEVFSQRGIGRGGHADIAEIAQVSVATVFNYFPTREDLVDDVLNKVENEFHQFINNSISLDLDVRSNLNTLLLNIIDSVQTGNKWIKVWFEWSTSTRDEVWPLFLSTHSNTNQVIKTMFEEGIERNEVCNDHTPENLTKMLHGICYSVFIQANRNSSSEEMEETANCFLNMLCIYK”, the protein production is reported as “failed”.
